According to the nanobody polyreactivity screen of Harvey et al. (2022):

Experiment: yeast display, Sf9 membrane polyspecificity reagent, FACS + sequencing; frameworks hold sequencing errors
In short: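 A synthetic nanobody library was expressed on Saccharomyces cerevisiae BJ5465 by galactose induction for 36–48 hours. The library was stained for 1 hour at 4 °C with 10% biotinylated, detergent-solubilized Sf9 membrane reagent and enriched with streptavidin microbeads before FACS. Low and high (top ~1%) gates were set on anti-HA fluorescence for expression and streptavidin fluorescence for reagent binding, and each polyreactivity label reflects the gate of origin.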

Sequence	polyreactivity (PSR sort gate)
QVQLVESGGGLVQAGGSLRLSCAASGSTFPYYGMGWYRQAPGKERELVAAINSGGSTYYADSVKGRFTISRDNAKNTVYLQMNSLKPEDTAVYYCNAAYPEWYAYDYWGQGTQVTVSS	low polyreactivity
QVQLVESGGGLVQAGGSLRLSCAASGSTFPYYTMGWYRQAPGKERELVAAITWRGGRTYYADSVKGRFTISRDNAKNTVYLQMNSLKPEDTAVYYCAAVTWVHRYSRFHPFVAFDFWGQGTQVTVSS	high polyreactivity
QVQLVESGGGLVQAGGSLRLSCAASGSTFPYYVMGWYRQAPGKERELVAAISWSGASTYYADSVKGRFTISRDNAKNTVYLQMNSLKPEDTAVYYCNRPKWYDGDYWGQGTQVTVSS	high polyreactivity
QVQLVESGGGLVQAGGSLRLSCAASGSTFQFNFMGWYRQAPGKERELVAAITSGASTYYADSVKGRFTISRDNAMNTVYLQMNSLEPEDTAVYYCAVDYSFRYDYVQRYYYLGQGTQVTVSS	high polyreactivity
QVQLVESGGGLVQAGGSLRLSCAASGSTFQGYAMGWYGQAPGKERELVAAINYSGGSTYYADSVKGRFTISRDNAKNTVYLQMNSLKPEDTAVYFCAARWYAVRDDYIVRYDYWGQGTQVTVSS	high polyreactivity
QVQLVESGGGLVQAGGSLRLSCAASGSTFQGYAMGWYRQAPGKERELVAAISWNGGSTYYADSVKGRFTISRDNAKNTVYLQMNSLKPEDTAVYYCAAYSFAYRFNYWGQGTQVTVSS	high polyreactivity
QVQLVESGGGLVQAGGSLRLSCAASGSTFQGYAMGWYRQAPGKERELVSAISGSGGNTYYADSVKGRFTISRDNAKNTVYLQMNSLKPEVTAVYSCAAGHVRTDWRYGYWGQGTQVTVSS	low polyreactivity
QVQLVESGGGLVQAGGSLRLSCAASGSTFQINAMGWYRQAPGKEREFVAAITVSSGSTYYADSVKGRFTISRDNAKNTVYLQMNSLKPEDTAVYYCAAEFHWWYAGYDYGYWGQGTQVTVSS	low polyreactivity
QVQLVESGGGLVQAGGSLRLSCAASGSTFQINAMGWYRQAPGKERELVAAIDGGGDTYYADSVKGRFTISRDNAKNTVYLQMNTLKPEDTAVYYCAAERRIYYQDFNYWGQGTQVTVSS	low polyreactivity
QVQLVESGGGLVQAGGSLRLSCAASGSTFQINAMGWYRQAPGKERELVAAIDGGGDTYYADSVKGRFTISRDNAKYTVYLQMNSMKPEDTAVYYCAAERRIYYQDFNFWGQGTQVTVSS	low polyreactivity
QVQLVESGGGLVQAGGSLRLSCAASGSTFQIYTMGWYRQAPGKERELVAAITNGGGSTYYADSVKGRFTISRDNAKNTVYLQMNSLKPEDTAVYYCAAEQRYPLIILYDYWGQGTQVTVSS	low polyreactivity
QVQLVESGGGLVQAGGSLRLSCAASGSTFQLYAMGWYRPPPGTERELVAGISRDGSTYYADSVKARFSISRDNSKNTVYLQMNSLKPEDTAVYYCAAKYYGNKRDLYYWGQGTQVTVSS	low polyreactivity
QVQLVESGGGLVQAGGSLRLSCAASGSTFQLYVMGWYRQAPGKERELVAAIDDGGGSTYYADSVKGRFTISRDNAKNTVYLQMNSLKPEDTAVYYCARRYGYFGYEYDYWGQGTQVTVSS	high polyreactivity
QVQLVESGGGLVQAGGSLRLSCAASGSTFQNYAMGWYRQAPGKERELVATINWSGGNTYYADSVKGRFTISRDNAKNTVYLQMNSLKPEDTAVYYCAADSPRYYYWVGPYYGYDYWGQGTQVTVSS	high polyreactivity
QVQLVESGGGLVQAGGSLRLSCAASGSTFQRNAMGWYRQAPGKERELVAVITRRGASTYYADSVKGRFTISRDYEKNTVYLQMKSLKAEDTAVYYCNKVPYGRDHHLLFDYWGQGTQVTVSS	high polyreactivity
QVQLVESGGGLVQAGGSLRLSCAASGSTFQSNAMGWYRQAPGKERELVASITDSGGRTYYADSVKGRFTSSRDNAKNTVYLQMNSLKPEDTAVYYCAAVSLWWSDYYFVEYDYWGQGTQVTVSS	high polyreactivity
QVQLVESGGGLVQAGGSLRLSCAASGSTFQSNGMGWYRQAPGKERELVAAITSTDASTSYADSVKGRFTISRDNAKNTVYLQMNSLKPEDTAVYYCAADFPVASGAELDYWGQGTQVTVSS	low polyreactivity
QVQLVESGGGLVQAGGSLRLSCAASGSTFQSYAMGWYRQAPGKERELVAAITTTGTRTYYADSVKGRFTISRDNAKNTVYLQMNSLKPEDTAVYYCNAQRLQAHRTSRRYGYWGQGTQVTVSS	high polyreactivity
QVQLVESGGGLVQAGGSLRLSCAASGSTFQSYTMGWYRPAPGKERELVAAISSSGGRTYYADSVKGRFTISRDNAKHTVYLQMNSLKPEDTAVYYCAAVTQSWRGATWYDYWGQGTQVTVSS	high polyreactivity
QVQLVESGGGLVQAGGSLRLSCAASGSTFQTNAMGWYRQAPGKERELVAAINSGGGTNYADSVKGRFTISRDNAKNTVYLQMNSLKPEDTAVYYCATDVLPRKYVSDYPSGAYDYWGQGTQVTVSS	low polyreactivity
QVQLVESGGGLVQAGGSLRLSCAASGSTFQTNARGWYRQAPGKERELVAAITWSGTSTYADSVKGRFTISRDNAKNPGYFQMNSLKPDDTAVYYCAAPILSFPSPYVQYDYWGLGTQVTVSS	low polyreactivity
QVQLVESGGGLVQAGGSLRLSCAASGSTFQWNAMGWYRQAPGKERELVAAISKSGGRTYYADSVKGRFTISRDFAKNTVYLQRNSLKPDDTAVYYCNALGSLDGRYGYWGQGTQVTVSS	high polyreactivity

Sequence	polyreactivity (PSR sort gate)
QVQLVESGGGLVQAGGSLRLSCAASGSTFQWYAMGWYRQAPGKERELVAAINKSGGTTYYADSVKGRFTISRDNAKNTVYLQMNSLKPEDTAVYYCAADTQQRGVYPRWWNPEFDYWGLGTQVTVSS	low polyreactivity
QVQLVESGGGLVQAGGSLRLSCAASGSTFQYNAMAWYRQAPGKEREFVAAITSSGGSTYYADSVKGRFTISRDNAKNTVYLQMNSLKPEDTAVYYCNKRRTRRYDYWGQGTQVTVSS	high polyreactivity
QVQLVESGGGLVQAGGSLRLSCAASGSTFQYNAMGGYRQAPGKERELVASISWSGGSTYYADSVKGRFTISRDNAKNTVYLQMNSLKPEVTAVYYCAADWSDQRDYWGQGTQVTVSS	low polyreactivity
QVQLVESGGGLVQAGGSLRLSCAASGSTFQYNAMGWYRQAPGKEREFVAAISRTGTSTYYADSVKGRFTISRDNAKNTVYLLMNSLKPEDTAVYYCAAKSLRSGMGYWGQGTQVTVTS	high polyreactivity
QVQLVESGGGLVQAGGSLRLSCAASGSTFQYNAMGWYRQAPGKEREFVAAISRTGTSTYYADSVKGRFTISRDNAKNTVYLQMNSLKPEDNAVYYCAAKSLRSGMGYWGQGTQVTVSS	high polyreactivity
QVQLVESGGGLVQAGGSLRLSCAASGSTFQYNAMGWYRQAPGKEREFVAAITNGGGSTYYADSVKGRFTISRDNAKNTVYLQMNSLKPEDTAVYYCNARFRYARYSQRYDYWGQGTQVTVSS	high polyreactivity
QVQLVESGGGLVQAGGSLRLSCAASGSTFQYNAMGWYRQAPGKERELVAAISTGTSTYYADSVKGRFTISRDNAKNTVYLQMNSLKPEDTAVYYCAAEYWGDYTEYNYWGQGTQVTVSS	high polyreactivity
QVQLVESGGGLVQAGGSLRLSCAASGSTFQYNVMGWYRPAPGKERELVATISYSSGRTYYADSVKGRFTISRDNAKNTVYLQMNSLKPEDTAVYYCAAAVRLYFWTSAYKYGYWGQGTQVTVSS	high polyreactivity
QVQLVESGGGLVQAGGSLRLSCAASGSTFQYYAMGWYRQAPGKERELVAAISSGGRTNYADSVKGRFTISRDNAKNTVYLQMNSLKPEDTAVYYCAARWCYTKGEFDYWGQGTQVTVSS	high polyreactivity
QVQLVESGGGLVQAGGSLRLSCAASGSTFRANAMGWYRQAPGKERELVAAITSGGSTNYADSVKGRFTISRDNAKNTVYLQMNCLKPEDTAVYYCADESYQEHSFYVYYGYDYWGQGTQVTVSS	low polyreactivity
QVQLVESGGGLVQAGGSLRLSCAASGSTFRANAMGWYRQAPGKERELVAAITSGGSTNYADSVKGRFTISRDNATNTVYLQMNSLKPEDTAVYYCADESYQEHSFYVYYGYDYWGQGTQVTVSS	low polyreactivity
QVQLVESGGGLVQAGGSLRLSCAASGSTFRANVMGWYRQAPGKEWELVAAITSGGGSTYYADSVKGRFTISRDNAKNTVYLQMNSLKPEDTAVYYCATKRARYSYYYWGQGTQVTVSS	high polyreactivity
QVQLVESGGGLVQAGGSLRLSCAASGSTFRDNAMGWYRQAPGKERELVAAITVIDGTTYYADSVKGRFTISRDNAKNTVYLQMKSLKPEDTAVYYCAADTIWYEYYYWGQGTQVTVSS	low polyreactivity
QVQLVESGGGLVQAGGSLRLSCAASGSTFRDNAMGWYRQAPGKEWELVAAITVIDGTTYYADSVKGRFTLSRDNAKNTVYLQMNSLKPEDTAVYYCAADTIWYEYYYWGQGTQVTVSS	low polyreactivity
QVQLVESGGGLVQAGGSLRLSCAASGSTFRDNTMGWYRQAPGKERELVAAITKSGGSTYYADSVKGRFTISRDTAKNTVYLQMNSLKPEDTAVYYCAAGARPRDKPVYFLYRYDYWGQGTQGTVSS	low polyreactivity
QVQLVESGGGLVQAGGSLRLSCAASGSTFRDYAMGWYRQAPGKERELVAAITSGGTTDYADSVKGRFTISRYNAKNTVYLQMISLKPEDTAVYYCNKDGVVAGYQYDYWGQGTQVTVSS	low polyreactivity
QVQLVESGGGLVQAGGSLRLSCAASGSTFRFYALGWSRQAPGKERELVAAINGSGGSTYYADSVKGRFTISRDNAKNTVYLQMNSLKPEDTAVYYCAATYYILYTSWDEYWGQGTQVTVSS	low polyreactivity
QVQLVESGGGLVQAGGSLRLSCAASGSTFRFYAMGWYRQAPGKEREFVAAISTSGGSTYYADSVKGRFTISRDNAKNTVYLQMISLKPEETAVYYCATRRRIRSSFYYDNDYWGLGTQVTVSS	high polyreactivity
QVQLVESGGGLVQAGGSLRLSCAASGSTFRFYAMGWYRQAPGKERELVAAISSGGSTYYADSVKGRFTISRDNAKNTVYLQMNSLKPEDTAVYYCNARLYYSTFRYYYWGQGTQVTVSS	high polyreactivity
QVQLVESGGGLVQAGGSLRLSCAASGSTFRFYAMGWYRQAPGKERELVAVISSAGSTNYADSVKGRFTISRDNAKNTVYLQMNSLKTEDTAVYYCAAYRRYSIYNYWGQGTQVTVSS	high polyreactivity
QVQLVESGGGLVQAGGSLRLSCAASGSTFRFYTMGWYRQAPGKERELVAAISGSGGSTYYADSVKGRFTISRDNAKNTVYLQMNSLKPEDTADYYCAADKSRNASHRGYWGQGTQVTVSS	low polyreactivity
